# Results: PMC7374887, “Severe syndromic ID and skewed X-inactivation in a child with NAA10 dysfunction and a novel heterozygous de novo NAA10 p.(His16Pro) variant - a case report” (BMC Medical Genetics, 2020)
# T1: NAA10 H16P-V5 (human, UniProt P41227-1 1-235, H16P)
# T1 sequence (looked up): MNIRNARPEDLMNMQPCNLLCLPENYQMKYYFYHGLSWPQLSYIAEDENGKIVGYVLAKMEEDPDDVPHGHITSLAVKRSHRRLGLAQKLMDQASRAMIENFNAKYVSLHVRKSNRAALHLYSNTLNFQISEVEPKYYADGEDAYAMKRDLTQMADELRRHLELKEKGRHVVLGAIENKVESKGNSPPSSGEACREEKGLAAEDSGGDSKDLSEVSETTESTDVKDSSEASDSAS
# B1: NAA15 (natural protein, human (endogenous in HeLa), UniProt Q9BXJ9 1-866, looked up)
# chain: MPAVSLPPKENALFKRILRCYEHKQYRNGLKFCKQILSNPKFAEHGETLAMKGLTLNCLGKKEEAYELVRRGLRNDLKSHVCWHVYGLLQRSDKKYDEAIKCYRNALKWDKDNLQILRDLSLLQIQMRDLEGYRETRYQLLQLRPAQRASWIGYAIAYHLLEDYEMAAKILEEFRKTQQTSPDKVDYEYSELLLYQNQVLREAGLYREALEHLCTYEKQICDKLAVEETKGELLLQLCRLEDAADVYRGLQERNPENWAYYKGLEKALKPANMLERLKIYEEAWTKYPRGLVPRRLPLNFLSGEKFKECLDKFLRMNFSKGCPPVFNTLRSLYKDKEKVAIIEELVVGYETSLKSCRLFNPNDDGKEEPPTTLLWVQYYLAQHYDKIGQPSIALEYINTAIESTPTLIELFLVKAKIYKHAGNIKEAARWMDEAQALDTADRFINSKCAKYMLKANLIKEAEEMCSKFTREGTSAVENLNEMQCMWFQTECAQAYKAMNKFGEALKKCHEIERHFIEITDDQFDFHTYCMRKITLRSYVDLLKLEDVLRQHPFYFKAARIAIEIYLKLHDNPLTDENKEHEADTANMSDKELKKLRNKQRRAQKKAQIEEEKKNAEKEKQQRNQKKKKDDDDEEIGGPKEELIPEKLAKVETPLEEAIKFLTPLKNLVKNKIETHLFAFEIYFRKEKFLLMLQSVKRAFAIDSSHPWLHECMIRLFNTAVCESKDLSDTVRTVLKQEMNRLFGATNPKNFNETFLKRNSDSLPHRLSAAKMVYYLDPSSQKRAIELATTLDESLTNRNLQTCMEVLEALYDGSLGDCKEAAEIYRANCHKLFPYALAFMPPGYEEDMKITVNGDSSAEAEELANEI
# Target: T1, NAA10 H16P-V5
# Assay: cell-based or functional assay
binder,measurement,value
B1,"Nt-acetylation assay of the V5 immunoprecipitate towards the monomeric NAA10 substrate EEEI24, normalized to NAA10-V5, relative to NAA10 WT-V5",1.5 fold
